Assays:
[1] = target: ASIC1a subunit (acid-sensing ion channel 1a) (human (endogenous in A549))
[2] = target: human heteromeric ASIC1a/α-ENAC/γ-ENAC channel (human, UniProt P78348 1-528; P37088 1-669; P51170 1-649); assay: cell-based or functional assay
Sequence of human heteromeric ASIC1a/α-ENAC/γ-ENAC channel (P78348 whole entry, chain 1 of 3): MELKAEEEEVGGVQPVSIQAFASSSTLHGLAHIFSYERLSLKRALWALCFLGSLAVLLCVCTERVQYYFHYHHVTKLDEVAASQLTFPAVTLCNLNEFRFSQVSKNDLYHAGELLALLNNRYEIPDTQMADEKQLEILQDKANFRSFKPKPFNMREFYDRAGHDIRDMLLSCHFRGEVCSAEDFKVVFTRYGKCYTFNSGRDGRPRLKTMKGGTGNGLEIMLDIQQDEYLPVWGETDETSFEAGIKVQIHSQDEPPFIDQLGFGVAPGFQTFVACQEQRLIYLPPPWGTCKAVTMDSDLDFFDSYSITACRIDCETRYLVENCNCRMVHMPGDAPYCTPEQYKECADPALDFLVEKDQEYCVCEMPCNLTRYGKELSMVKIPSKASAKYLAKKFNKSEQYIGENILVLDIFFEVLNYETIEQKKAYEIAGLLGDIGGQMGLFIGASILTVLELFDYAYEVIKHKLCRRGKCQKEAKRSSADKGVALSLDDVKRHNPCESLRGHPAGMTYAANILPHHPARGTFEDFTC
Sequence of human heteromeric ASIC1a/α-ENAC/γ-ENAC channel (P37088 whole entry, chain 2 of 3): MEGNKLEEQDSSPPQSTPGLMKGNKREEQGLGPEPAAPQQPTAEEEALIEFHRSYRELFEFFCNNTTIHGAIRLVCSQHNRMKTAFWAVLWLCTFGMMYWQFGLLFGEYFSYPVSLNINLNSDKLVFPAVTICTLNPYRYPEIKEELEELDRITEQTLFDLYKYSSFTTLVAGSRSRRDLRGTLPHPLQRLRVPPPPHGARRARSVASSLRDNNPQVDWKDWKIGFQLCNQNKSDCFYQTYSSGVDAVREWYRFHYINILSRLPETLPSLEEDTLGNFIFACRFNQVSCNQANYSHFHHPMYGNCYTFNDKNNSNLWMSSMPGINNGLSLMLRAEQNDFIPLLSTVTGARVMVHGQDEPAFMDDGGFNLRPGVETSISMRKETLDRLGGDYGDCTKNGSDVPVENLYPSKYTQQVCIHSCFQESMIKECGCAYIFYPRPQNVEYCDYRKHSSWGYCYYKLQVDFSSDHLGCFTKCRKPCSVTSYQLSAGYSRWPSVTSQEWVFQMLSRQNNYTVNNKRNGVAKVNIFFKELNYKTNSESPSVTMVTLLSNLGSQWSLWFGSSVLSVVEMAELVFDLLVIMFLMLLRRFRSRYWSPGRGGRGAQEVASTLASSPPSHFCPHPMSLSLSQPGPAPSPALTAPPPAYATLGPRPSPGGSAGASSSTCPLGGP
Sequence of human heteromeric ASIC1a/α-ENAC/γ-ENAC channel (P51170 whole entry, chain 3 of 3): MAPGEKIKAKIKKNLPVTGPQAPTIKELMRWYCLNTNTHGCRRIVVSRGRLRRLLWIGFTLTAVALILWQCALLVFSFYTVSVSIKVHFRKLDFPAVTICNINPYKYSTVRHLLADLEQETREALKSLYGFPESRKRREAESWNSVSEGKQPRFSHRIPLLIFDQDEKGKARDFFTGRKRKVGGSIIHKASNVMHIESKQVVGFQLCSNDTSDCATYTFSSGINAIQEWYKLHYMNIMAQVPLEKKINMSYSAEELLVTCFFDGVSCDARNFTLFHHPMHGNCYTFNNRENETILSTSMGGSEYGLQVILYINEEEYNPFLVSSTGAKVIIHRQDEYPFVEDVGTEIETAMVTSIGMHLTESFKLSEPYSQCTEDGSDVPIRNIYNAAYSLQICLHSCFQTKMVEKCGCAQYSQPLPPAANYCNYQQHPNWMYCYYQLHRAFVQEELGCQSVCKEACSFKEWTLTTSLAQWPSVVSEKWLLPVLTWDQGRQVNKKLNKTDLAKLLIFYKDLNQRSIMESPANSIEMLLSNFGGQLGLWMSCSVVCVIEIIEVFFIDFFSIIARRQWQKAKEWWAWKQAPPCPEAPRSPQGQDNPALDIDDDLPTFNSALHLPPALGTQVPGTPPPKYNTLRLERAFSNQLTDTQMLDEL

Sequence of ASIC1a subunit (acid-sensing ion channel 1a) (human (endogenous in A549)) (P78348 whole entry): as the sequence (P78348 whole entry, chain 1 of 3) above

B1: recombinant mambalgin-2 from Dendroaspis polylepis (natural protein)
chain: LKCFQHGKVVTCHRDMKFCYHNTGMPFRNLKLILQGCSSSCSETENNKCCSTDRCNK
inhibition of currents evoked by a pH drop from 7.4 to 5.0 in X. laevis oocytes expressing homomeric hASIC1a (two-electrode voltage clamp, mambalgin-2 0–10 μM, 15 s pre-incubation), IC50 [1]: 0.59 μM
inhibition of currents evoked by a pH drop from 7.4 to 5.0 in X. laevis oocytes expressing hASIC1a/α-ENAC/γ-ENAC (two-electrode voltage clamp, mambalgin-2 0–10 μM, 15 s pre-incubation), IC50 [2]: 79 nM
